From patent US20140274766A1, “METHODS OF USING F-SPONDIN AS A BIOMARKER FOR CARTILAGE DEGENERATIVE CONDITIONS AND BONE DISEASES” (priority 2009, published 2014)

Assays:
embryonic mouse tibia = assay: Embryonic mouse tibia organ culture ex vivo (growth, staining, histology)
Method: FIGS. 20A, 20B and 20C. F-spondin regulates bone growth and morphology in mouse tibial organ cultures. Longitudinal growth and histological analysis of embryonic mouse tibia after 7 days of culture ex vivo. Tibia were treated with recombinant F-spondin FS (1 mg/ml) or an anti-F-spondin, TSR-domain specific (R1) antibody. (A) Representative images of whole tibia stained with alcian blue (proteoglycans) and alizarin red (mineral). (B) Tibial growth was measured after 7 days of organ culture and expressed as percent of original length at day 0. Average growth for control cultures has been set to 100% (C) H&E stained sections of corresponding limbs after 7 days treatment. Arrows indicate hypertrophic chondrocytes in the […] growth plate.
All animal experiments were conducted according to the guidelines of the Institutional Animal Care and Use Committee (IACUC) of New York University. […] After 12 hours, tibiae were placed in 24-well Falcon plates and initial longitudinal length was measured using a stereomicroscope. […] (purchased from R&D Systems, Minneapolis, Minn. (Cat No AF3135). Media was changed every 24 hours beginning on day one, and tibial length was measured again at the end of one week. The results were expressed as percentage changes in length relative to day one. […]

chick chondrocytes = assay: Alkaline phosphatase (AP) activity in RA-stimulated chick chondrocyte cultures; type: cell-based; details: F-Spondin 1 ug/ml with RA, 3 days
Method: FIG. 16. Inhibition of F-spondin decreases AP activity in RA stimulated cultures. Chick chondrocytes were treated with RA at 100 nm for 5 days with and without F-spondin antibodies and AP activity assessed. Antibodies with specificities to the spondin domain (medium grey) and TSR domain (black) inhibited AP activity compared to ctrl (noAb) (light grey). Note the greater inhibitory effect of the TSR domain antibody. * p=<0.05 versus no ab ctrl.
FIG. 17. The pro-maturation effect of F-spondin is not inhibited following neutralization of TGF-β activity by coculture with Latency Associated Peptide (LAP). AP activity was determined in chick chondrocyte cultures by ELISA following RA stimulation for 3 days. Cultures were either ctrl (RA only) or RA with either F-Spondin (1 ug/ml) or LAP (10 or 100 ng/ml), or RA with F-Spondin (1 ug/ml) and LAP (10 or 100 ng/ml) in combination.
FIG. 18. Blocking αvβ3 integrin inhibits the promaturation effect of F-spondin. Chondocyte cultures were transfected as previously and stimulated with RA for 3 days in the presence of IgG control, or αvβ3 blocking antibodies prior to assay for AP activity. Inhibition of αvβ3 led to a ˜50% suppression of F-spondin-induced AP activity but had no effect on baseline AP activity (vector ctrl).
FIGS. 23A, 23B and 23C. F-spondin regulation of chondrocyte maturation requires the TSR domain. (A) Schematic representation of F-spondin protein domains and plasmid constructs encoding either full length (FS1) or TSR domain truncated (FS6) cDNAs. (B) Relative AP activity of FS or pcDNA3 control transfected cultures after 5 days treatment. (C) Relative AP activity following inhibition of F-spondin protein domains. Upper sternal chondrocytes were stimulated with 0, 10, 35 or 100 nM retinoic acid (RA) for 5 days in culture. […]
We next determined that the pro-maturation effect of F-spondin is not inhibited following neutralization of TGF-β activity by coculture with Latency Associated Peptide (LAP) (R&D Systems, Cat No 246-LP/CF). […] AP activity was determined in chick chondrocyte cultures by ELISA following RA stimulation for 3 days. […]

AP activity (chick chondrocytes): increase
B1: F-spondin: 110 kDa, secreted, heparin-binding extracellular matrix glycoprotein; used as recombinant protein (R&D systems) or transfected-cell supernatant (protein, UniProt Q9HCB6 29-807, looked up)
Spondin-1: FSDETLDKVPKSEGYCSRILRAQGTRREGYTEFSLRVEGDPDFYKPGTSYRVTLSAAPPSYFRGFTLIALRENREGDKEEDHAGTFQIIDEEETQFMSNCPVAVTESTPRRRTRIQVFWIAPPAGTGCVILKASIVQKRIIYFQDEGSLTKKLCEQDSTFDGVTDKPILDCCACGTAKYRLTFYGNWSEKTHPKDYPRRANHWSAIIGGSHSKNYVLWEYGGYASEGVKQVAELGSPVKMEEEIRQQSDEVLTVIKAKAQWPAWQPLNVRAAPSAEFSVDRTRHLMSFLTMMGPSPDWNVGLSAEDLCTKECGWVQKVVQDLIPWDAGTDSGVTYESPNKPTIPQEKIRPLTSLDHPQSPFYDPEGGSITQVARVVIERIARKGEQCNIVPDNVDDIVADLAPEEKDEDDTPETCIYSNWSPWSACSSSTCDKGKRMRQRMLKAQLDLSVPCPDTQDFQPCMGPGCSDEDGSTCTMSEWITWSPCSISCGMGMRSRERYVKQFPEDGSVCTLPTEETEKCTVNEECSPSSCLMTEWGEWDECSATCGMGMKKRHRMIKMNPADGSMCKAETSQAEKCMMPECHTIPCLLSPWSEWSDCSVTCGKGMRTRQRMLKSLAELGDCNEDLEQVEKCMLPECPIDCELTEWSQWSECNKSCGKGHVIRTRMIQMEPQFGGAPCPETVQRKKCRIRKCLRNPSIQKLRWREARESRRSEQLKEESEGEQFPGCRMRPWTAWSECTKLCGGGIQERYMTVKKRFKSSQFTSCKDKKEIRACNVHPC
alizarin red staining (embryonic mouse tibia; 7 days culture, compared to untreated limbs): slight increase
number of hypertrophic chondrocytes (H&E) (embryonic mouse tibia; growth plate cartilage adjacent to mineralized core): increased numbers
